Test results taken from paper PMC11103505 (2024).

T1: recombinant mouse AXL protein (mouse, UniProt Q00993 19-445)
T1 chain: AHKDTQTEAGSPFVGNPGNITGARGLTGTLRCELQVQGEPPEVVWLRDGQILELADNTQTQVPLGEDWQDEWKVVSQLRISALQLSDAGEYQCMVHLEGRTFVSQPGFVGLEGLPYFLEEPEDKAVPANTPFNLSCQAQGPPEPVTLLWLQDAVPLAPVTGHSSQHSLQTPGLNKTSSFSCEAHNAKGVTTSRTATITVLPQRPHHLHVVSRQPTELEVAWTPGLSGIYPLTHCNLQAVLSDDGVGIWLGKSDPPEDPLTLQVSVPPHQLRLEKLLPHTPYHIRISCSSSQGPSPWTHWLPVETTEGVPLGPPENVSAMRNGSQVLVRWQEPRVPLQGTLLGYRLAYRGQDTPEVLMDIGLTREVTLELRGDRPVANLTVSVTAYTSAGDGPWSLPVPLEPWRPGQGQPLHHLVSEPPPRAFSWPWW

T2: recombinant mouse AXL protein (mouse, UniProt Q00993 19-445)
T2 chain: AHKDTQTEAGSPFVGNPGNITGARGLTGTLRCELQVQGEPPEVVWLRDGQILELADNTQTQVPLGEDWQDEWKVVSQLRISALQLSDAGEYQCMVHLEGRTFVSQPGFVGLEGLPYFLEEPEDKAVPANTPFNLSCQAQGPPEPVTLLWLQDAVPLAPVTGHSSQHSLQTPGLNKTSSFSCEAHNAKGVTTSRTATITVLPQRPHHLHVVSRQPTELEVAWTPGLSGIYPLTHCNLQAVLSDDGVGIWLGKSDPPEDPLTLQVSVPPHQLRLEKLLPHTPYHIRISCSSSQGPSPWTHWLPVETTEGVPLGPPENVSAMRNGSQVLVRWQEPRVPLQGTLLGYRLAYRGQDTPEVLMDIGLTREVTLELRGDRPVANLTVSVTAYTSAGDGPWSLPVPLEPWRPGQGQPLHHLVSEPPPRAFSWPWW


Legend:
Test in all cases: SPR
[1] = biological target: recombinant human AXL protein (human, UniProt P30530 26-451)
Target sequence in this assay (P30530 26-451): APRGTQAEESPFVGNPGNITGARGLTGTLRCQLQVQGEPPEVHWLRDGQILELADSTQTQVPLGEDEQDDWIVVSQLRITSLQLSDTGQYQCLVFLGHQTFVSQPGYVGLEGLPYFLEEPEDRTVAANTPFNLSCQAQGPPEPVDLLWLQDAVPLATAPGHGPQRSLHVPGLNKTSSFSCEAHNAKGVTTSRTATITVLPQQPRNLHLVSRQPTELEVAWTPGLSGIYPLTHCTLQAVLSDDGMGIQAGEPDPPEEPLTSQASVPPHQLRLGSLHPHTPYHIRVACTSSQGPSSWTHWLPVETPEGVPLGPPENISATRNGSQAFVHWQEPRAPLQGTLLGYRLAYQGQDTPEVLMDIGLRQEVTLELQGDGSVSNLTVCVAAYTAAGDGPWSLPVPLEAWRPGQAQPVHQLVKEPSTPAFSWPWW

[2] = biological target: T1, recombinant mouse AXL protein
[3] = biological target: T2, recombinant mouse AXL protein
[4] = biological target: recombinant human AXL protein (human, UniProt P30530 26-451); remark: listed apart in the source
Target sequence in this assay (P30530 26-451): as above

Row | Binder | Kd [1] [nM] | Kd [2] [nM] | Kd [3] [nM] | Kd [4] [nM]
1 | anti-AXL single domain antibody sdAb19 (VHH) VHH: QVQLQESGGGMVQPGGSLRLSCAASGFTFTSYDMTWLRQTPGKGPEWVSTISTGGLRTYYGNSVKGRFIISRDNTKNTLYLQMNSLKPEDTALYYCARGPFTVADPRRGQGTQVTVSS | 24 | 11.8 | – | –
2 | anti-AXL single domain antibody sdAb25 (VHH) VHH: QVQLQESGGGLVQPGGSLRLSCVASGSIFSIYAMGWYRQAPGKQRELVAGISSGGSTNYADSVKGRFTISRDNAKNTVYLQMNSLKPEDTAVYYCNYDLVEAVTGEYDYWGQGTQVTVSS | 9.1 | 439 | – | –
3 | anti-AXL single domain antibody sdAb4 (VHH) VHH: QVQLQESGGGLVQPGGSLRLSCVASGSIFSIYAMGWYRQAPGKQRELVAGISSGGSTNYADSVKGRFTISRDNAKNTVYLQMNSLKPEDTAVYYCNYDLVKAVTGEYDYWGQGTQVTVSS | 10.8 | 541 | – | –
4 | anti-AXL single domain antibody sdAb20 (VHH) VHH: QVQLQESGGGLVRPGGSLRLSCAASGFTFTSYDMTWLRQTPGKGPEWVSTISTGGLRTYYGNSVKGRFIISRDNTKNTLYLQMNSLKPEDTALYYCARGPFTVADPRRGQGTQVTVSS | – | – | 5.2 | 22
5 | anti-AXL single domain antibody sdAb12 (VHH) VHH: QVQLQESGGGLVKPGGSLRLSCVASGSIFSIYAMGWYRQAPGKQRELVAGISSGGSTNYADSVKGRFTISRDNAKNTVYLQMNSLKPEDTAVYYCNYDLVEAVTGEYDYWGQGTQVTVSS | 7.7 | 354 | – | –
